The results in this text go back to PMC3094505.

In general, Kd refers to a measure of binding affinity in units of concentration. A high value points to weaker binding.

Experiment [1] has as its target Fluoresceinated Nav1.2IQp, peptide of residues 1901-1927 of the Nav1.2 alpha-subunit. The experiment in a line: fluorescence polarisation.
Experiment [2] shares this target. The experiment in a line: fluorescence polarisation. The source holds these as a separate data set. In general terms: Fluorescence polarisation rises when a labelled molecule tumbles more slowly, as on binding a larger partner.

Like-named read-outs stand apart in the source and are kept apart here.

With “Paramecium calmodulin N-domain (residues 1-80) (from UniProt P07463 2-81) (domain or fragment)”, the Kd is 70.8 µM in experiment [1] and 1.64 µM in experiment [2].
